Changes are numbered by the printed parent chain.
B1: clone 3 (PFFF) (Fab, V domains shown)
VH: QVTLRESGPALVKPTQTLTLTCTFSGFSLSTPGMSVGWIRQPPGKALEWLADIWWDDKKDYNPSLKSRLTISKDTSKNQVVLKVTNMDPADTATYYCARSMITNFYFDVWGQGTTVTVSS
VL: DIQMTQSPSTLSASVGDRVTITCSASSSVGYMHWYQQKPGKAPKLLIYDTFKLASGVPSRFSGSGSGTEFTLTISSLQPDDFATYYCFQGSFYPFTFGGGTKVEIK
B2: clone 20 (SFSF) (antibody, V domains shown)
VH: B1 VH with P32S
VL: B1 VL with F51S
B3: clone 4 (PFFY) (antibody, V domains shown)
VH: B1 VH
VL: B1 VL with F92Y
B4: clone 15 (AFSG) (antibody, V domains shown)
VH: B1 VH with P32A
VL: B1 VL with F51S, F92G
B5: clone 2 (AFFG) (Fab, V domains shown)
VH: B1 VH with P32A
VL: B1 VL with F92G
B6: clone 10 (PFSF) (antibody, V domains shown)
VH: B1 VH
VL: B1 VL with F51S
B7: clone 5 (PFFW) (antibody, V domains shown)
VH: B1 VH
VL: B1 VL with F92W
B8: clone 19 (SFSW) (antibody, V domains shown)
VH: B1 VH with P32S
VL: B1 VL with F51S, F92W
B9: clone 12 (PWFF) (antibody, V domains shown)
VH: B1 VH with F105W
VL: B1 VL
B10: clone 13 (SFFF) (antibody, V domains shown)
VH: B1 VH with P32S
VL: B1 VL
B11: clone 18 (SFFG) (antibody, V domains shown)
VH: B1 VH with P32S
VL: B1 VL with F92G
B12: clone 7 (PFFG) (antibody, V domains shown)
VH: B1 VH
VL: B1 VL with F92G
B13: clone 6 (PFYF) (antibody, V domains shown)
VH: B1 VH
VL: B1 VL with F51Y
B14: clone 21 (SWYF) (antibody, V domains shown)
VH: B1 VH with P32S, F105W
VL: B1 VL with F51Y
B15: clone 14 (SFFW) (antibody, V domains shown)
VH: B1 VH with P32S
VL: B1 VL with F92W
B16: clone 11 (PWFW) (antibody, V domains shown)
VH: B1 VH with F105W
VL: B1 VL with F92W
B17: clone 1 (AFSF) (Fab, V domains shown)
VH: B1 VH with P32A
VL: B1 VL with F51S
B18: clone 17 (PWSW) (antibody, V domains shown)
VH: B1 VH with F105W
VL: B1 VL with F51S, F92W
B19: clone 16 (PFSG) (antibody, V domains shown)
VH: B1 VH
VL: B1 VL with F51S, F92G
B20: reference antibody IX-493 (SWSG) (Fab, V domains shown)
VH: B1 VH with P32S, F105W
VL: B1 VL with F51S, F92G
notes: also called Basic; basic antibody
B21: clone 9 (PFSW) (antibody, V domains shown)
VH: B1 VH
VL: B1 VL with F51S, F92W

Biological target: T1, RSV F antigen (respiratory syncytial virus (RSV), UniProt P03420 26-524)
T1 construct: also called F antigen of RSV; RSV F protein
T1 sequence (P03420 26-524): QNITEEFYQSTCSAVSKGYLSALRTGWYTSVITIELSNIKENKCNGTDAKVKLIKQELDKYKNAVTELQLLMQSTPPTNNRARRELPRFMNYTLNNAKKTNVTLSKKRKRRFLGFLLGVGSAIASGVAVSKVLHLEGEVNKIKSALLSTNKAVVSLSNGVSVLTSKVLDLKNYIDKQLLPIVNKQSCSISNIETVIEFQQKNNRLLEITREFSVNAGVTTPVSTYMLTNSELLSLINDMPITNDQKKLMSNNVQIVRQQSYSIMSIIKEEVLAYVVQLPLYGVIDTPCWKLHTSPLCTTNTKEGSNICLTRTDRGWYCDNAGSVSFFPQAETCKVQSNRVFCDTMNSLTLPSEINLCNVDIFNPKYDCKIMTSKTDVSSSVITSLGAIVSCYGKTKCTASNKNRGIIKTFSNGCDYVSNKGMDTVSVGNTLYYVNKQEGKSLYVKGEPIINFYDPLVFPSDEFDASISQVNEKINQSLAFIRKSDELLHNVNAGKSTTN
Test: antibody titration ELISA on 500 ng RSV F antigen; qualitative score from titration curves

Compared with B1, B2 is lower in “Ag Score” value: 4 arbitrary score (0-4) for the first, 2 arbitrary score (0-4) for the second.

Going from B3 to B4, the “Ag Score” value falls from 3.5 arbitrary score (0-4) to 2.5 arbitrary score (0-4).

Going from B5 to B6, the “Ag Score” value falls from 4 arbitrary score (0-4) to 3 arbitrary score (0-4).

Going from B7 to B8, the “Ag Score” value falls from 3.5 arbitrary score (0-4) to 2 arbitrary score (0-4).

B9 and B10 are the same in “Ag Score” value: 2.5 arbitrary score (0-4) for the first, 2.5 arbitrary score (0-4) for the second.

First: B11
Second: B12
The “Ag Score” value of the first is lower: 2 arbitrary score (0-4) for the first, 3 arbitrary score (0-4) for the second.

First: B13
Second: B14
The “Ag Score” value of the first is higher: 3.5 arbitrary score (0-4) for the first, 2 arbitrary score (0-4) for the second.

Compared with B15, B16 is higher in “Ag Score” value: 2.5 arbitrary score (0-4) for the first, 3 arbitrary score (0-4) for the second.

Going from B17 to B18, the “Ag Score” value falls from 4 arbitrary score (0-4) to 2 arbitrary score (0-4).

Going from B19 to B20, the “Ag Score” value falls from 2 arbitrary score (0-4) to 0.1 arbitrary score (0-4).

With B21 the “Ag Score” value was 3 arbitrary score (0-4).
